Data set [1] addresses T1, protransglutaminase of Streptoverticillium mobaraense IFO13819 (pro-MTG) (UniProt P81453).
T1 sequence: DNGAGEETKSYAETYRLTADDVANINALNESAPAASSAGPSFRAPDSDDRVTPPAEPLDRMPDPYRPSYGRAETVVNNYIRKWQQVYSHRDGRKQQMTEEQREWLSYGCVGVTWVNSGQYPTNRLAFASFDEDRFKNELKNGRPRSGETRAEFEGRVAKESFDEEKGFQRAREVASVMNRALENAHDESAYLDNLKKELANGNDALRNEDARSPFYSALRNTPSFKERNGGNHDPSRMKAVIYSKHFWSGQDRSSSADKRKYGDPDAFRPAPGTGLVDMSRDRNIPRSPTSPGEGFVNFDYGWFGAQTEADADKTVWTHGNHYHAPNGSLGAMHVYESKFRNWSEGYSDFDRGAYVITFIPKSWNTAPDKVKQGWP

Data set [2] addresses T2, Streptomyces subtilisin inhibitor (SSI) derived from actinomycetes (UniProt P01006).
T2 sequence: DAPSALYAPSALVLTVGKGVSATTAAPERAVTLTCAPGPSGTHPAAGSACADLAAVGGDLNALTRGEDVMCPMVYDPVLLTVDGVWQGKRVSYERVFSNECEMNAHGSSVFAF

The record followed here is patent US20100159560.

As to “serine protease SAM-P45 (Streptomyces albogriseolus)”, in data set [1], the “amount of protease needed to convert pro-MTG to active MTG (TG activity by the hydroxamate method)” value was “generated only insufficient transglutaminase activity even at an amount of 1/50 of the substrate, and that the complete conversion to the active form was not observed”; the “amount of protease needed to convert pro-MTG to active MTG (TG activity by the hydroxamate method, MTG protein by reverse phase chromatography)” value is “when SAM-P45 was added at an amount of 1/10 of the substrate, the conversion into the active MTG was observed, but a decrease in the amount and the activity of MTG-protein was observed”.
Turning to “neutral metalloprotease SVP70 from Streptoverticillium mobaraense IFO13819”, the “cleavage points (HPLC separation and sequencing of peptide fragments)” value in the data set with insulin B is listed as “cleaved before (at N-terminal side of) especially Phe, often Leu, sometimes Tyr, Trp, Ile, Val”. Besides, the “relative activity (Gly-Pro-Ser-Phe-Arg-Ala-Pro-Asp-Ser cleavage activity, absence of compounds = 100%)” value in data set [2] was “underwent strong inhibitory action”. Moreover, in data set [1], the “amount of protease needed to convert pro-MTG to active MTG (TG activity by the hydroxamate method, MTG protein by reverse phase chromatography)” value is “SVP could convert pro-MTG to active MTG with an amount as small as 1/500 of the substrate”; the “cleavage points (HPLC separation and sequencing of peptide fragments)” value is listed as “cleaved before (at N-terminal side of) especially Phe, often Leu, sometimes Tyr, Trp, Ile, Val”; the “conversion of pro-MTG to mature MTG (SDS-PAGE time course; TG activity by the hydroxamate method), substrate:enzyme = 200:1” value was “pro-MTGs were converted to the mature forms, and the produced MTGs were not reduced even after a long-term reaction”.
Turning to “neutral metalloprotease SGMP II from Streptomyces griseus”, the “conversion of pro-MTG to mature MTG (SDS-PAGE time course; TG activity by the hydroxamate method), substrate:enzyme = 200:1” value in data set [1] was “pro-MTGs were converted to the mature forms, and the produced MTGs were not reduced even after a long-term reaction”.
